Series [1] deals with T1, full-length Ctf19-Mcm21 (K. lactis) (Kluyveromyces lactis, UniProt Q6CRN7 1-270; Q6CVQ9 1-293).
T1 construct: Ctf19 of Kluyveromyces lactis; Mcm21 of Kluyveromyces lactis; for microscale thermophoresis it was labelled on lysine side chains with the red dye NT-647-NHS; also stands for the Ctf19-Mcm21 subassembly of COMA in nanoflow mass spectra; source: E. coli BL21 Rosetta 2(DE3)pLysS, co-expressed, purified
T1 sequence (looked up) 1: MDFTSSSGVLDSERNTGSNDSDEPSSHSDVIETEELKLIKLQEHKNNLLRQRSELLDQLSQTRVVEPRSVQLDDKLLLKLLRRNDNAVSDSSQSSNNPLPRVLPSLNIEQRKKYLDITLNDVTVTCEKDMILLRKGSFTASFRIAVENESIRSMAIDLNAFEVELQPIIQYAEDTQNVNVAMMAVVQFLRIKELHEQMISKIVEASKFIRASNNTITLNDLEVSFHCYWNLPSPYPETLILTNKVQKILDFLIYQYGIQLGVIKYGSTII
T1 sequence (looked up) 2: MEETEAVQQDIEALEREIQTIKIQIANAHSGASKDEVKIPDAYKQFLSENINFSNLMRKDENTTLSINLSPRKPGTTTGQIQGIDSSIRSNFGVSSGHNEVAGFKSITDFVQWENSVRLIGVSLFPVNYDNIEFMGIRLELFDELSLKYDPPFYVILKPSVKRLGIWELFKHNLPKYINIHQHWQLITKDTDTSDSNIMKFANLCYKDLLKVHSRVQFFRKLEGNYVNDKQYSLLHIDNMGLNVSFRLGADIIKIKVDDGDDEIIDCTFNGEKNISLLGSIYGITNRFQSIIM
The experiment in a line: MST; Ctf19-Mcm21 labelled with NT-647-NHS on lysines, ~27 nM; dilution series of peptide; 22-25°C; ITC/MST buffer; three dilution series. To be noted: both partners purified.

For series [2], the target named is T1, full-length Ctf19-Mcm21 (K. lactis). Kind of series: ITC; peptide at 120 uM injected into 13 uM Ctf19-Mcm21 in the cell, 25°C, ITC/MST buffer; single set of sites fit; three independent measurements. The settings on record: both partners purified. In general terms: In ITC the heat of successive injections is recorded.
The target in series [3] is T2, full-length Ctf19-Mcm21 (K. lactis) (Kluyveromyces lactis, UniProt Q6CRN7 1-270; Q6CVQ9 1-293).
T2 chain 1: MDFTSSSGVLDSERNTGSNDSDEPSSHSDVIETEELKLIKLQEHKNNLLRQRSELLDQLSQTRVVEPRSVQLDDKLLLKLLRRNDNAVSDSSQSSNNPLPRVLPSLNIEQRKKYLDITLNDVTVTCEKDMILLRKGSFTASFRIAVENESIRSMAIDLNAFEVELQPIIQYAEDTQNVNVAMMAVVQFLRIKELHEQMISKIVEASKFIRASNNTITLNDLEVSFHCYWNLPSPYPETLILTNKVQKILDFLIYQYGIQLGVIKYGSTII
T2 chain 2: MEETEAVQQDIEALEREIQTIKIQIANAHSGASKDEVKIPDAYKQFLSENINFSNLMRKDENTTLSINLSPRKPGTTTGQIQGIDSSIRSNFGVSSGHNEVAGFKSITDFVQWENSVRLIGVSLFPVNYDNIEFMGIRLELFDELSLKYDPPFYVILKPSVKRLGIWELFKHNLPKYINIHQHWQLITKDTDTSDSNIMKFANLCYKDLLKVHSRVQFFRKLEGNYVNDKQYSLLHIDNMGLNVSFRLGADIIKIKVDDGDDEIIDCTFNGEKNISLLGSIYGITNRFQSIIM
The experiment in a line: ITC.

Series [4] concerns the molecule itself. Kind of series: native MS; nanoflow spectra and tandem mode with collision-induced dissociation in the gas phase (argon); subassemblies stripped of subunits.
Series [5] has as its target T3, Nkp1-Nkp2 heterodimer (K. lactis) (Kluyveromyces lactis, UniProt Q6CPR4 1-210; Q6CSR8 1-151).
T3 construct: Nkp1 of Kluyveromyces lactis; Nkp2 of Kluyveromyces lactis; also called NN; source: E. coli BL21 Rosetta 2(DE3)pLysS, purified
T3 sequence (looked up) 1: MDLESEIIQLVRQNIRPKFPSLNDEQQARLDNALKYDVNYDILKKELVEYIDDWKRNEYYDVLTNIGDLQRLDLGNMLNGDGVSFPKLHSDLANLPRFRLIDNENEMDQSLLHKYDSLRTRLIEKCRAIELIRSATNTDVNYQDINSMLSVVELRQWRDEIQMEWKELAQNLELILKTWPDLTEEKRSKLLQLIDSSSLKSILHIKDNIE
T3 sequence (looked up) 2: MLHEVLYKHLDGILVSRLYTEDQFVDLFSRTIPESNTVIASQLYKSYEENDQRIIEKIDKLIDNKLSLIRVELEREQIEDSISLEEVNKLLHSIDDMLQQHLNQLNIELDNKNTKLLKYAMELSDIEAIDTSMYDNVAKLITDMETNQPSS
Kind of series: SEC; Superdex 200 HiLoad 10/600 prep grade column (Appendix Fig S7B). The settings on record: both partners purified. (Size exclusion chromatography separates by hydrodynamic size, large species first.)

Series [6] addresses T3, Nkp1-Nkp2 heterodimer (K. lactis). The experiment in a line: SEC; analytical SEC of purified K. lactis samples alone and combined, Superdex 200 10/300, 4°C; fractions on SDS-PAGE. To be noted: both partners purified.

B1: Okp1-derived synthetic peptide with the Ctf19-Mcm21 binding motif (Okp1 residues 318-337) (peptide, UniProt Q6CJY0 318-337, looked up)
peptide: SNEIYQQDKIDFNLKLKTDF
notes: also called Okp1-derived peptide; source: synthetic peptide (Protein Chemistry core facility, IMP, Vienna)
Consider B1, for which the Kd in series [1] is about 80 nM; in series [2] it was about 40 nM; in series [3], 43 nM.

B2: Ame1-Okp1 (K. lactis, full length) (complex, Kluyveromyces lactis)
chain 1: MDALKQRHLKLLYRQRGSASRTIDYDVVIEPELREDGDLVTDSQLTEQDDQSFPDIQVPSPDRVDDFDLNQGDGLMDKATANEDDIDHVIGDEVAAVNAPVETSDLVIDTTQFDSMTLSQLSTPLTSMATIDVLRRLLETVILVTIEERTSQFNRAGSARLRLKLKLEIKILTWFLHQSKEDLITISELNLSNNDLLYRLKQISLLKNSLSRSLLDVRSAISSYEGPNNALSEEQVALQNFKRINELILSQRIDTIINNNLPPDTSTFDTESKKGLLPTLKTLNESLQNTIG
chain 2: MSKRYLDDVLSPDTGTSDSDSSIENLNADNYRIDIVNDNARRDDIDRIQSSNLNHEPPYNLEGVFAIDDDEHGDEMVRKDSDRRQDITEDNDDSFVPDITTPPRERKRVRFGINEKGGDEEFNNVSPWDFKRLIRKFYKEQLPDTYQIRNWKRPSKDMLTNFIDLIENNIELASEEVFKQYHQELNQLYPDSEEQAKLKDSLENKVFDTTYNIKKRLKRTKVPSKIWVDNLNMEYIYAKGESIKKRYKSELDRAEAIERQLIREEEHLKSLQEKGETQAKKRKQVLSKELSELSKTMHPSLSVALSNTFGLIKDDKMSNEIYQQDKIDFNLKLKTDFSKPLISEKEENSLNGLTNAMDNNRELVNEIFGKISALLQPKKNSNE
notes: Ame1 of Kluyveromyces lactis; Okp1 of Kluyveromyces lactis; stands as the Ame1-Okp1 part of COMA; also called Okp1-Ame1; source: E. coli BL21 Rosetta 2(DE3)pLysS, co-expressed with Ctf19 and Mcm21 versions
Take B2: the binding result in series [4] is given as “binds”.

B3: Okp1_295-383 (K. lactis) (domain or fragment, Kluyveromyces lactis, UniProt Q6CJY0 295-383, looked up)
chain: KTMHPSLSVALSNTFGLIKDDKMSNEIYQQDKIDFNLKLKTDFSKPLISEKEENSLNGLTNAMDNNRELVNEIFGKISALLQPKKNSNE
notes: source: E. coli BL21 Rosetta 2(DE3)pLysS, co-expressed with Ctf19 and Mcm21 versions, purified
Turning to B3, the binding result in series [5] was “binds”.

B4: Okp1_229-383 (K. lactis) (domain or fragment, Kluyveromyces lactis, UniProt Q6CJY0 229-383, looked up)
chain: DNLNMEYIYAKGESIKKRYKSELDRAEAIERQLIREEEHLKSLQEKGETQAKKRKQVLSKELSELSKTMHPSLSVALSNTFGLIKDDKMSNEIYQQDKIDFNLKLKTDFSKPLISEKEENSLNGLTNAMDNNRELVNEIFGKISALLQPKKNSNE
notes: also called Okp1 variant with segments 1, 2 and 3; source: E. coli BL21 Rosetta 2(DE3)pLysS, co-expressed with Ctf19_D-RWD and Mcm21_D-RWD, purified
For B4, the binding result in series [6] is reported as “binds”.

As usually defined, the Kd is the free concentration of one partner at which half of the binding sites on the other are occupied at equilibrium, for simple one-to-one binding.

The values above are taken from article PMC5709738 (The EMBO Journal, 2017).
